Key:
wt-CFTR [1] = target: T1, wt-CFTR (Homo sapiens, UniProt P13569); test: Flow cytometry on permeabilized BHK-21 cells overexpressing wt-CFTR; format: cell-based; parameters: expressed in transfected cells; conditions: compared to negative control nanobody
Procedure: (§1) Parental BHK-21 cells (ATCC; CCL-10) and cells stably overexpressing human wt-CFTR^[43,44,47] or 2PT-F508del-CFTR, as described above, were permeabilized with 0.01% n-Dodecyl-β-D-Maltopyranoside β-DDM—Inalco) at least for 2 h on ice. In the meantime, cells were incubated with 50 μg/ml nanobodies and DRAQ7 (0.3 μM—Biostatus) to monitor the permeabilization state. Nanobody binding was detected by using His-tag specific antibody (Invitrogen, catalogue number MA1-135, 1 μg/ml) or Myc-tag specific antibody (Invitrogen, catalogue number 13-2500, 2 μg/ml) and then anti-mouse-Alexa Fluor 488 (Invitrogen, catalogue number A11001, 1.3 μg/ml) at least for 30 min on ice. Cells were washed one time between each step by centrifugation (200×g for 5 min at 4° C.). All incubations (100 μl) and washes (1.5 ml) were performed in PBS with 6% fetal bovine serum (FBS) and 0.01%13-DDM on ice. Cells fluorescence was measured with Gallios Flow Cytometer (Beckman Coulter). Data were analyzed with Kaluza software.

2PT-F508del-CFTR = target: T2, 2PT-F508del-CFTR (Homo sapiens, UniProt P13569, A534P/DEL508-508/I539T/S492P); test: Flow cytometry on BHK-21 cells expressing 2PT-F508del-CFTR; format: cell-based
T2 construct: expressed in transfected cells
Procedure: as §1

[2] = target: T3, stab-CFTR: 2PT/ΔRI/R1048A_1172X (Homo sapiens, UniProt P13569, A534P/DEL405-436/I539T/R1048A/S492P); test: NanoDSF thermostability of stab-CFTR; format: binding; conditions: versus stab-CFTR alone
T3 construct: made in house; host or cells: BHK-21 cells (ATCC CCL-10), pNUT vector
Procedure: Purified stabilized human CFTR (stab-CFTR: 2PT/ΔRI/R1048A_1172X) was concentrated to 0.5 mg/ml and mixed with 0.1 mg/ml nanobody (^˜[…]) and capillaries were loaded with a volume of 10 The capillaries were placed into trays of Prometheus NT.48 (Nanotemper) and subjected to the fluorescence analysis. The emission of fluorescent radiation with the wavelengths of 330 nm and 350 nm was measured with the temperature changes from 25 to 85° C., with the rate of 1° C. min-1. The first derivative of 350 nm fluorescence was used to determine the melting temperature of the proteins.

F508del-CFTR = target: T4, F508del-CFTR (Homo sapiens, UniProt P13569, DEL508-508); test: Forskolin induced organoid swelling (FIS) assay; format: cell-based; conditions: F508del homozygous intestinal organoids, lentiviral Nb, 3 μM VX-809 24 h before, Fsk and 3 μM VX-770, 2 h
T4 construct: expressed in transfected cells
Text: Intestinal organoids are 3D epithelial structures grown from a single Lgr5+ stem cell (originating from the crypts of the GI-tract) with an internal lumen that recapitulates key features of the intestinal tissue architecture. When differentiated, the organoids form villus and crypt-like structures. CFTR is located at the apical membrane lining the internal lumen and its activation leads to rapid organoid swelling, in direct correlation with the amount of functional CFTR. This model system thus provides a physiologically relevant assay to evaluate the potential of new therapies with high translational value. CF patient-derived organoids expressing F508del-CFTR from two alleles were transduced with lentiviral vectors encoding the sequence of either a stabilizing nanobody (T2a) or a control nanobody. 24 h before FIS assay, corrector 3 μM VX-809 or DMSO was added. Organoids were stimulated by Fsk (0,8 μM) and 3 μM VX-770 just before FIS. […]
Transduction of human intestinal organoids was performed as described previously (Vidovic, Carlon et al. 2016, Ensinck, De Keersmaecker et al. 2020). […] Organoids were stimulated with forskolin (5 μM) and VX-770 (3 μM) or DMSO, and analyzed by confocal live cell microscopy at 37° C. for 120 min (LSM800, Zeiss, Zen Blue). The total organoid area increase relative to t=0 of forskolin treatment was quantified.

2PT-NBD1 = target: T5, 2PT-NBD1 (Homo sapiens, UniProt P13569, A534P/I539T/S492P/V470M); test: Thermal shift assay (DSF) of 2PT-NBD1; format: binding; conditions: versus isolated 2PT-NBD1
T5 construct: 2PT-NBD1 mutants (residues 387-646 containing the mutations S492P, A534P, I539T); His6-SUMO (N, cleaved yes); made in house; host or cells: Escherichia coli BL21(DE3) pLysS
Procedure: Solutions of either 2PT-NBD1 or F508del-2PT-NBD1 (10 μM final concentration), nanobodies (30 μM final concentration) and 2.5× or 5× concentrated SYPRO Orange Protein Stain (Molecular Probes) diluted in 20 mM HEPES pH 7.5, 150 mM NaCl, 3 mM MgCl2, 2 mM ATP and 10% (w/v) glycerol, 10% (w/v) ethylene glycol, were added to the wells of a 96-well PCR plates type BR white (VWR) in a final volume of 25 μl. Plates were sealed with EasySeal sheets (Molecular dimensions) and spun 2 min at 900× g. SYPRO orange fluorescence was monitored in CFX96 Touch Real-Time PCR Detection System (Bio-Rad) using FRET scan mode from 10 to 80° C. in increments of either 1° C. or 0.2° C.

wt-CFTR [3] = target: T1, wt-CFTR; test: Thermal inactivation of CFTR (residual ATPase activity after heat challenge); format: biochemical; parameters: His10-SUMO* (N); FLAG; EGFP (C); made in house; host or cells: HEK 293 cell line D165; conditions: residual ATPase activity after 30 min heat challenge
Procedure: To determine effect of nanobodies on functional stability, aliquots of purified wt-CFTR (25 nM) were preincubated 1 h on ice with 1 μM nanobody (or 15 μM, in the case of G3a). Substrate α-[32P]-ATP (2 μl) was then added for measurement of ATPase activity as previously described^[48]. Then, nanobody protection against thermal denaturation was determined after a 30 min thermal challenge of the protein complexes followed by an assay of residual ATPase.

T5 sequence (P13569 388-646 V470M/S492P/A534P/I539T): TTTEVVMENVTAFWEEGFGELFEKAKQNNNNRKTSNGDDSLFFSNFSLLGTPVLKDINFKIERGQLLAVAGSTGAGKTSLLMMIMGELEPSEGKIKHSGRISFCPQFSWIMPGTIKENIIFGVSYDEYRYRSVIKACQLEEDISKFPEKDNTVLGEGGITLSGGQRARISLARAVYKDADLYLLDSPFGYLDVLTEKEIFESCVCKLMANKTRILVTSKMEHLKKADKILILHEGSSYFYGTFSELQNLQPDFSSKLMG
T2 sequence (P13569 with tags, fused parts or gaps S492P/DEL508-508/A534P/I539T): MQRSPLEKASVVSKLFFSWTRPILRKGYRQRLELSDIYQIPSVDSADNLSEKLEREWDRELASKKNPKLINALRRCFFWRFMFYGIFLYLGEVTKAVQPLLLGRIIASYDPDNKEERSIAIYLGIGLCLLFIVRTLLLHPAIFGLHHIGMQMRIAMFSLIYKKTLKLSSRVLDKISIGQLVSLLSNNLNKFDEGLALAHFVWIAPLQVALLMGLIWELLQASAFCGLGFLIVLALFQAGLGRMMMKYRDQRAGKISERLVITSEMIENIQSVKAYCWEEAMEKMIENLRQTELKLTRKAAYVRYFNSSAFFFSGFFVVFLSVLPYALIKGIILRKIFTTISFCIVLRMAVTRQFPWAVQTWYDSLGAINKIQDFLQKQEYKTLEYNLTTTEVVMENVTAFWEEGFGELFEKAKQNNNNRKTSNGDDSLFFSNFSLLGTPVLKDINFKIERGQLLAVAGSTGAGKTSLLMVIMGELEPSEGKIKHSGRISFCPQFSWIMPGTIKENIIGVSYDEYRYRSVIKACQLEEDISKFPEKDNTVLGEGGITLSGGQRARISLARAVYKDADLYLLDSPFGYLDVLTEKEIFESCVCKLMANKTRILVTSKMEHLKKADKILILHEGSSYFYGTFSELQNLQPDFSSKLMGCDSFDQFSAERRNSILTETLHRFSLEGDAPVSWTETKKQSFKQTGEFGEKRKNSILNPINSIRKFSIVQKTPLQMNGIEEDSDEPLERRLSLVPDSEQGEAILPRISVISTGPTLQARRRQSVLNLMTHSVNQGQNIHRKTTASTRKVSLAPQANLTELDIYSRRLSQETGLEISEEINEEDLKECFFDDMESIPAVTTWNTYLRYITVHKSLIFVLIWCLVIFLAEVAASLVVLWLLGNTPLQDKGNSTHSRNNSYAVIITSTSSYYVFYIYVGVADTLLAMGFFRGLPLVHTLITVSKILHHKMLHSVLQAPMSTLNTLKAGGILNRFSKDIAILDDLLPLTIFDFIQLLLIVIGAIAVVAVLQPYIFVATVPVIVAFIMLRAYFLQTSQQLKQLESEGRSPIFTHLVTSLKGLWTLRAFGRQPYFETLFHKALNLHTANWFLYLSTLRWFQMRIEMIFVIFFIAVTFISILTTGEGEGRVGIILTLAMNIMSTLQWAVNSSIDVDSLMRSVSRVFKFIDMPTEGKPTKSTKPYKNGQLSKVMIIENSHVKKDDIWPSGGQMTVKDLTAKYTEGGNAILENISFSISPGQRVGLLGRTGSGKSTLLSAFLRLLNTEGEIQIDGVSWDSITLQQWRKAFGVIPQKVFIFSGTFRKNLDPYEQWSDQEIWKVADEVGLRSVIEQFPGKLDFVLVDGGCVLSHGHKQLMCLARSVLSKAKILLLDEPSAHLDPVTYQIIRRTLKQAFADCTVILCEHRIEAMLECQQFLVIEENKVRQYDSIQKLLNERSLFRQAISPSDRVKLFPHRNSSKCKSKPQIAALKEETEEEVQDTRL
T1 sequence (P13569 whole entry): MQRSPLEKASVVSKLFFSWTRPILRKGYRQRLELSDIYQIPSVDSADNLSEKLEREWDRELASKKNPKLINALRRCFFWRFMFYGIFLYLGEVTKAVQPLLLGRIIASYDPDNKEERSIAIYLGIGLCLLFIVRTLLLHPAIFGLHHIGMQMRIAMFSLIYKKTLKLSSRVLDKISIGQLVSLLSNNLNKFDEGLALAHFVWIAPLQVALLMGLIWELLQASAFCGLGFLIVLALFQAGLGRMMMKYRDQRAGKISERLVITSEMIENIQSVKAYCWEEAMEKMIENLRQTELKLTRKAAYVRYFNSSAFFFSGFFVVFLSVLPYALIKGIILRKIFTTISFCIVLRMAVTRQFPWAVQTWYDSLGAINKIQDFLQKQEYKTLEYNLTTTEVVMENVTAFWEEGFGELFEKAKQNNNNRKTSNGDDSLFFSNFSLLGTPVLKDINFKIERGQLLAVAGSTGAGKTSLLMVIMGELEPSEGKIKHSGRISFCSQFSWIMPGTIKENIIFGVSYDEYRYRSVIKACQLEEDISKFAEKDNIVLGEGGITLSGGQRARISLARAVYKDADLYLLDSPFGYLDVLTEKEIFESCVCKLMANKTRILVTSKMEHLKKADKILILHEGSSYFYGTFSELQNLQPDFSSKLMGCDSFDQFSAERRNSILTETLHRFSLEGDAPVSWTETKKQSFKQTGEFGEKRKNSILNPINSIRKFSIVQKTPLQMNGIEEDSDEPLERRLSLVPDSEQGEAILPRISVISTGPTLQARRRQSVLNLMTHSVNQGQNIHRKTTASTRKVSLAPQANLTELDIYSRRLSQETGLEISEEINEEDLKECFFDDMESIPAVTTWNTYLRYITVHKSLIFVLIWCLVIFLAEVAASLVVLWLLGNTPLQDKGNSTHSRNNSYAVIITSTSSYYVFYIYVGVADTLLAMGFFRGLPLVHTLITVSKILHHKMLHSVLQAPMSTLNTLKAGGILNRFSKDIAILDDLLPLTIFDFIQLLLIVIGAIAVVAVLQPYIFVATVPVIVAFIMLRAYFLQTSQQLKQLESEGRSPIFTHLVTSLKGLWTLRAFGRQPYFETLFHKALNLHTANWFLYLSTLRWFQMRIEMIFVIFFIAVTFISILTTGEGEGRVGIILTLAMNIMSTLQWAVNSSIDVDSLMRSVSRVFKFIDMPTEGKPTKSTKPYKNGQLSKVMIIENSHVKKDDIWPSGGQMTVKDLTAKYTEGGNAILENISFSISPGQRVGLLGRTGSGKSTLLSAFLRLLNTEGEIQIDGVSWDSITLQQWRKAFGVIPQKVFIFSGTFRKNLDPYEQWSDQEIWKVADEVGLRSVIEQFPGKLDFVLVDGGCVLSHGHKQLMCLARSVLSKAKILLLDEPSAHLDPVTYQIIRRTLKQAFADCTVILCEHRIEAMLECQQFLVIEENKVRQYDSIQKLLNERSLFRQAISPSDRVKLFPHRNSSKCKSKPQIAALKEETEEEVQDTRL
T4 sequence (P13569 with tags, fused parts or gaps DEL508-508): as the sequence (P13569 with tags, fused parts or gaps S492P/DEL508-508/A534P/I539T) above, with P492S, P533A, T538I counted along it
T3 sequence (P13569 with tags, fused parts or gaps DEL405-436/S492P/A534P/I539T/R1048A limits assumed): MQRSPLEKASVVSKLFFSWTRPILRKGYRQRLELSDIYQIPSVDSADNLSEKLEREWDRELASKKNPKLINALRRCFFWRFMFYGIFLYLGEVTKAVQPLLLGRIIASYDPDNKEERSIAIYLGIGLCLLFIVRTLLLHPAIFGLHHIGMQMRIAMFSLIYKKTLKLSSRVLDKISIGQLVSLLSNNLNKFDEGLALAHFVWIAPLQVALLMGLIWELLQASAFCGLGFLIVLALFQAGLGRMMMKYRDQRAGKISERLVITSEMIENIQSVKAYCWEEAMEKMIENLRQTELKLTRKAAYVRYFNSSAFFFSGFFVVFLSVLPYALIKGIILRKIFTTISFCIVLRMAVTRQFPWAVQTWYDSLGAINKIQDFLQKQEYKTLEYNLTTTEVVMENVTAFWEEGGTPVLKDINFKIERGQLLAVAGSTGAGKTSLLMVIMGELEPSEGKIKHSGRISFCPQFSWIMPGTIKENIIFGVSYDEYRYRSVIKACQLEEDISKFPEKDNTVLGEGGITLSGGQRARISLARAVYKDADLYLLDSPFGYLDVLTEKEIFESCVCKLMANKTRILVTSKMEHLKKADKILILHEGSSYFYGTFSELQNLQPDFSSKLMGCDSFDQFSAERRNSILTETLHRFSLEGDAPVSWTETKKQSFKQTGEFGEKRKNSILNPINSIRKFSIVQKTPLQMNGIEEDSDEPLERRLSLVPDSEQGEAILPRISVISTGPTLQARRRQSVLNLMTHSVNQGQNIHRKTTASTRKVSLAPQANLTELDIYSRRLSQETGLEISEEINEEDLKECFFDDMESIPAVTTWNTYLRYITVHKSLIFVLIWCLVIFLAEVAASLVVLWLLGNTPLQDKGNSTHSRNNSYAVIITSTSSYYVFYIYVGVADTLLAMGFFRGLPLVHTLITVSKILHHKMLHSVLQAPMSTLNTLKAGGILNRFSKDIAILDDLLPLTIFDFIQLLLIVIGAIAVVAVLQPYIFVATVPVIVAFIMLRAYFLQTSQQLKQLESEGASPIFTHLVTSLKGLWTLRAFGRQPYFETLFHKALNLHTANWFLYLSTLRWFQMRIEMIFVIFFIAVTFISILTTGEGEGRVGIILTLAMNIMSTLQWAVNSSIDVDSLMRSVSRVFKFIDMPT

Row | Molecule | labelling of BHK-21 cells overexpressing wt-CFTR (wt-CFTR [1]) | binding to 2PT-F508del expressing cells (2PT-F508del-CFTR) | thermostabilization of stab-CFTR (Tm increase) [2] [°C] | CFTR response (relative increase in organoid surface area) (F508del-CFTR) | increase of Tm of 2PT-NBD1 (2PT-NBD1) | shift of CFTR thermal inactivation (wt-CFTR [3]) [°C]
1 | T2a: NBD1-specific CFTR-stabilizing nanobody, SEQ ID NO:3, binds epitope 1 (protein, T2a Nanobody amino acid sequence) VHH: QVQLQESGGGLVQAGGSLRLSCAASGSIFRIDAMGWYRQAPGKQRELVAHSTSGGSTDYADSVKGRFTISRDNAKNTVYLQMNSLKPEDTAVYYCNADVRTRWYASNNYWGQGTQVTVSS | increased labelling | bind efficiently | 8 | significantly increased CFTR functionality over time | 11.2 °C | 
2 | T27: NBD1-specific CFTR-stabilizing nanobody, SEQ ID NO:4, binds epitope 1 (protein, T27 Nanobody amino acid sequence) VHH: QVQLQESGGGLEQPGGSLRLSCATSGVIFGINAMGWYRQAPGKQRELVATFTSGGSTNYADFVEGRFTISRDNAKNTVYLQMNGLRPEDTAVYYCHATVVVSRYGLTYDYWGQGTQVTVSS | increased labelling |  |  |  | 11.9 °C | 
3 | G3a: non-stabilizing nanobody, SEQ ID NO:50, recognizes the structurally diverse region of NBD1 (protein, G3a Nanobody) VHH: QVQLQESGGGLVQAGGSLRLSCTASGRAFSWYVMGWFRQAPGKEREFVATVSGNGSRRDYADSVKGRFTISRDNAKNTVYLQMNSLKPEDTAVYYCAASSTYYYTDPEKYDYWGQGTQVTVSS | increased labelling | bind efficiently |  |  | did not induce a significant shift | 3.1
4 | T8: nanobody, SEQ ID NO:7, binds epitope 2 including F508, stabilizes WT CFTR but not F508del (protein, T8 Nanobody amino acid sequence) VHH: QVQLQESGGGLVQPGGSLRLSCAASGSTSSINAMGWYRQAPGKQREPVAISSSGGDTRYAEPVKGRFTISRDNAQNKVYLQMNSLKPEDTAVYYCWLNWGRTSVNSWGQGTQVTVSS | increased labelling | not able to bind |  |  | 9.3 °C | 
5 | D12: NBD1-specific CFTR-stabilizing nanobody, SEQ ID NO:2, binds epitope 1 (protein, D12 Nanobody amino acid sequence) VHH: QVQLQESGGGLVQAGSSLRLACAATGSIRSINNMGWYRQAPGKQRGMVAIITRVGNTDYADSVKGRFTISRDNAKNTVYLQMNSLKPEDTATYYCHAEITEQSRPFYLTDDYWGQGTQVTVSS | increased labelling |  |  |  | 13.8 °C | 7
